{"source": "paper PMC6827314", "about": "“An aldo-keto reductase with 2-keto-L-gulonate reductase activity functions in L-tartaric acid biosynthesis from vitamin C in Vitis vinifera” (The Journal of Biological Chemistry, 2019)", "proteins": {"B1": {"name": "Vitis vinifera 2-keto-L-gulonate reductase (Vv2KGR) (enzyme, UniProt A5CAL1 1-313, looked up)", "chain": "MESIGVLLTCPMNPYLEQELDKRFKLFRFWDFPSANDLFREHSNSIRAVVGNSFIGADAQMIEALPKMEIVSSFSVGLDKIDLVRCKEKGIRVTNTPDVLTEDVADLALALILATLRRICESDRYVRSGSWKKGDFKLTTKFTGKSVGIIGLGRIGSAIAKRAEGFSCPISYHSRTEKPGTNYKYYPSVVELASNCQILVVACALTPETRHIINREVINALGPKGVVINIGRGLHVDEPELVSALVEGRLGGAGLDVFENEPNVPEELLAMDNVVLLPHVGSGTVETRKDMADLVLGNLEAHFLNKPLLTPVV", "notes": "Vv2KGR, Vitis vinifera cv; The forward primer carries an ATG of the NdeI site directly before the gene's own ATG; also called aldo-keto reductase; apo-Vv2KGR; source: E. coli BL21(DE3) pLysS-T1, pET14b, purified (HisTrap FF Crude, HiTrap Q HP, dialysis); not shown: His tag (from the vector pET14b)"}}, "key": {"[1]": {"target": "the molecule itself", "assay": "crystal structure; ligand-free Vv2KGR, space group P2(1), four subunits (chains A-D) in the asymmetric unit, 1.58 Å; crystals from 1.26 M ammonium sulfate, 100 mM sodium acetate/acetic acid pH 4.5, 200 mM NaCl, 16 °C; oligomeric interface analysed with PDBePISA"}, "[2]": {"substrate": "O=C(O)C(=O)CO", "assay": "purified protein", "type": "biochemical, Vitis vinifera", "conditions": "1 mM NADPH, 100 mM HEPES pH 7.5, 37 °C"}, "[3]": {"substrate": "O=C(O)C(=O)[C@@H](O)[C@H](O)[C@@H](O)CO", "assay": "purified protein", "type": "biochemical, Vitis vinifera", "conditions": "1 mM NADPH, 100 mM HEPES pH 7.5, 37 °C"}, "[4]": {"substrate": "CC(=O)C(=O)O", "assay": "purified protein", "type": "biochemical, Vitis vinifera", "conditions": "1 mM NADPH, 100 mM HEPES pH 7.5, 37 °C"}, "[5]": {"substrate": "O=CC(=O)O", "assay": "purified protein", "type": "biochemical, Vitis vinifera", "conditions": "1 mM NADPH, 100 mM HEPES pH 7.5, 37 °C"}}, "data": [{"protein": "B1", "values": [{"measurement": "stoichiometry N", "setting": "[1]", "value": 2}, {"measurement": "Km", "setting": "[2]", "value": 96, "unit": "µM"}, {"measurement": "Vmax", "setting": "[2]", "value": 6.29, "unit": "µmol/min/mg"}, {"measurement": "kcat", "setting": "[2]", "value": 6.97, "unit": "s⁻¹"}, {"measurement": "Km", "setting": "[3]", "value": 700, "unit": "µM"}, {"measurement": "Vmax", "setting": "[3]", "value": 7.54, "unit": "µmol/min/mg"}, {"measurement": "kcat", "setting": "[3]", "value": 4.18, "unit": "s⁻¹"}, {"measurement": "Km", "setting": "[4]", "value": 1371, "unit": "µM"}, {"measurement": "Km", "setting": "[5]", "value": 44, "unit": "µM"}, {"measurement": "Vmax", "setting": "[5]", "value": 13.8, "unit": "µmol/min/mg"}, {"measurement": "kcat", "setting": "[5]", "value": 38.3, "unit": "s⁻¹"}]}]}
